Source: paper PMC8461307, “FHR-5 Serum Levels and CFHR5 Genetic Variations in Patients With Immune Complex-Mediated Membranoproliferative Glomerulonephritis and C3-Glomerulopathy” (Frontiers in Immunology, 2021)

B1: recombinant FHR-5 G278S (natural protein, human, UniProt Q9BXR6 19-569, looked up)
chain: EGTLCDFPKIHHGFLYDEEDYNPFSQVPTGEVFYYSCEYNFVSPSKSFWTRITCTEEGWSPTPKCLRMCSFPFVKNGHSESSGLIHLEGDTVQIICNTGYSLQNNEKNISCVERGWSTPPICSFTKGECHVPILEANVDAQPKKESYKVGDVLKFSCRKNLIRVGSDSVQCYQFGWSPNFPTCKGQVRSCGPPPQLSNGEVKEIRKEEYGHNEVVEYDCNPNFIINGPKKIQCVDGEWTTLPTCVEQVKTCGYIPELEYSYVQPSVPPYQHGVSVEVNCRNEYAMIGNNMITCINGIWTELPMCVATHQLKRCKIAGVNIKTLLKLSGKEFNHNSRIRYRCSDIFRYRHSVCINGKWNPEVDCTEKREQFCPPPPQIPNAQNMTTTVNYQDGEKVAVLCKENYLLPEAKEIVCKDGRWQSLPRCVESTAYCGPPPSINNGDTTSFPLSVYPPGSTVTYRCQSFYKLQGSVTVTCRNKQWSEPPRCLDPCVVSEENMNKNNIQLKWRNDGKLYAKTGDAVEFQCKFPHKAMISSPPFRAICQEGKFEYPICE
notes: complement Factor H-related protein 5 (FHR-5), human; amplified from the wtCFHR5 vector with a mutagenic primer; numbered from the ATG translation initiation site; Same construct as m1 with the patient variation G278S
B2: recombinant FHR-5 R356H (natural protein, human, UniProt Q9BXR6 19-569, looked up)
chain: EGTLCDFPKIHHGFLYDEEDYNPFSQVPTGEVFYYSCEYNFVSPSKSFWTRITCTEEGWSPTPKCLRMCSFPFVKNGHSESSGLIHLEGDTVQIICNTGYSLQNNEKNISCVERGWSTPPICSFTKGECHVPILEANVDAQPKKESYKVGDVLKFSCRKNLIRVGSDSVQCYQFGWSPNFPTCKGQVRSCGPPPQLSNGEVKEIRKEEYGHNEVVEYDCNPNFIINGPKKIQCVDGEWTTLPTCVEQVKTCGYIPELEYGYVQPSVPPYQHGVSVEVNCRNEYAMIGNNMITCINGIWTELPMCVATHQLKRCKIAGVNIKTLLKLSGKEFNHNSRIHYRCSDIFRYRHSVCINGKWNPEVDCTEKREQFCPPPPQIPNAQNMTTTVNYQDGEKVAVLCKENYLLPEAKEIVCKDGRWQSLPRCVESTAYCGPPPSINNGDTTSFPLSVYPPGSTVTYRCQSFYKLQGSVTVTCRNKQWSEPPRCLDPCVVSEENMNKNNIQLKWRNDGKLYAKTGDAVEFQCKFPHKAMISSPPFRAICQEGKFEYPICE
notes: complement Factor H-related protein 5 (FHR-5), human; amplified from the wtCFHR5 vector with a mutagenic primer; histidine instead of arginine at position 356, a variation found in patients; numbered from the ATG translation initiation site; Same construct as m1 with the patient variation R356H
B3: recombinant wild-type Factor H-related protein 5 (FHR-5WT) (natural protein, human, UniProt Q9BXR6 19-569, looked up)
chain: EGTLCDFPKIHHGFLYDEEDYNPFSQVPTGEVFYYSCEYNFVSPSKSFWTRITCTEEGWSPTPKCLRMCSFPFVKNGHSESSGLIHLEGDTVQIICNTGYSLQNNEKNISCVERGWSTPPICSFTKGECHVPILEANVDAQPKKESYKVGDVLKFSCRKNLIRVGSDSVQCYQFGWSPNFPTCKGQVRSCGPPPQLSNGEVKEIRKEEYGHNEVVEYDCNPNFIINGPKKIQCVDGEWTTLPTCVEQVKTCGYIPELEYGYVQPSVPPYQHGVSVEVNCRNEYAMIGNNMITCINGIWTELPMCVATHQLKRCKIAGVNIKTLLKLSGKEFNHNSRIRYRCSDIFRYRHSVCINGKWNPEVDCTEKREQFCPPPPQIPNAQNMTTTVNYQDGEKVAVLCKENYLLPEAKEIVCKDGRWQSLPRCVESTAYCGPPPSINNGDTTSFPLSVYPPGSTVTYRCQSFYKLQGSVTVTCRNKQWSEPPRCLDPCVVSEENMNKNNIQLKWRNDGKLYAKTGDAVEFQCKFPHKAMISSPPFRAICQEGKFEYPICE
notes: complement Factor H-related protein 5 (FHR-5), human; variations are numbered from the ATG translation initiation site; Secreted into the Sf9 supernatant; also called wild-type FHR-5; wtCFHR5

The binders below were run against T1, purified C3b (UniProt P01024 23-667; P01024 749-1663) (assay: SPR; ProteOn XPR36; recombinant FHR-5 variants amine-coupled on a GLC chip at 4,200-4,600 RU; C3b in serial dilutions as analyte in DPBS with 0.005% Tween-20, 50 µl/min; ovalbumin channel subtracted; bivalent analyte model, KD = kd/ka). Details: both partners purified.
T1 construct: complement C3 beta chain, as in C3b; complement C3b alpha' chain (C3 alpha chain without C3a); also called C3b fragment; source: bought: Merck
T1 sequence (P01024 23-667, chain 1 of 2): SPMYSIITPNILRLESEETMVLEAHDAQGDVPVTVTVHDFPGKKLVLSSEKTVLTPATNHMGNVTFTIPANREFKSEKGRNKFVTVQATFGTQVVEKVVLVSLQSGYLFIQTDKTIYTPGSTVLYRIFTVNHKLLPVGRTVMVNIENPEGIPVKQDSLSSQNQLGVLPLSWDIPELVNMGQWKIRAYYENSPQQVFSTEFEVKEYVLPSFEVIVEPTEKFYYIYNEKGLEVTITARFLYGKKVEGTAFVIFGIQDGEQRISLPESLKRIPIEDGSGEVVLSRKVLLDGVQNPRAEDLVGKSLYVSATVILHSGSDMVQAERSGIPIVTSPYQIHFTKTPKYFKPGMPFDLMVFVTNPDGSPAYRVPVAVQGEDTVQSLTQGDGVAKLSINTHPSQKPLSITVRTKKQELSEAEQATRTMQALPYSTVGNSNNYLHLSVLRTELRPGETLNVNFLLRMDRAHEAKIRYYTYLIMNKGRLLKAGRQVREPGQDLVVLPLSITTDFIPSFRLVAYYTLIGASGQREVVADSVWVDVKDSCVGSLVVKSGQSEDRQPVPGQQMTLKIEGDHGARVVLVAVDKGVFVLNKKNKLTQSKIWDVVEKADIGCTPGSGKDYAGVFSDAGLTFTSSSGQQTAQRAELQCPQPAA
T1 sequence (P01024 749-1663, chain 2 of 2): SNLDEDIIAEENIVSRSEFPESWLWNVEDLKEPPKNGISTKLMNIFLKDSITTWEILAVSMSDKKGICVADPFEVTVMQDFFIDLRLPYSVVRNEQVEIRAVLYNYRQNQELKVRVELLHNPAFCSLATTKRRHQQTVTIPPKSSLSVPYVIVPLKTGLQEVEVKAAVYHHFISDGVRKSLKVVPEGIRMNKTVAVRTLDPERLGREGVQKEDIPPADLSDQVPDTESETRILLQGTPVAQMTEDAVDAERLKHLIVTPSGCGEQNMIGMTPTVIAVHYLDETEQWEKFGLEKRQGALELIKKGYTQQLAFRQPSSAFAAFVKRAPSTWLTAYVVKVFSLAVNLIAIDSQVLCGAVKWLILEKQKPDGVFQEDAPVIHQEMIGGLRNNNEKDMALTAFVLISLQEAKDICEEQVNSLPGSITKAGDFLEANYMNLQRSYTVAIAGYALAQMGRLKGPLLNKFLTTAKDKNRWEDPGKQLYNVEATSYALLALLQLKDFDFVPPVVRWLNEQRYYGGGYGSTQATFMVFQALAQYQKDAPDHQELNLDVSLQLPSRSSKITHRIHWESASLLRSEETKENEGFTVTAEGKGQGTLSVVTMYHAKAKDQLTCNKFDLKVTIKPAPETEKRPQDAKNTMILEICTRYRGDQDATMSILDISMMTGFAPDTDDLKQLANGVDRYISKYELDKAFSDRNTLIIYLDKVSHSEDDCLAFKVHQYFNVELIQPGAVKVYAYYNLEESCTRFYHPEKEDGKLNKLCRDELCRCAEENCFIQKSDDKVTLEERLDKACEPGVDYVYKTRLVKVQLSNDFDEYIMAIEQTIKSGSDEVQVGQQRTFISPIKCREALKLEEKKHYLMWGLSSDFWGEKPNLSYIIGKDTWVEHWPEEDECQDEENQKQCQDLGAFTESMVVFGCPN

In order of falling Kd:
1. B1  20.5 µM
2. B2  5.6 µM
3. B3  5.26 µM
